Measured values published in the nanobody polyreactivity screen of Harvey et al. (2022).

Experiment: yeast display, Sf9 membrane polyspecificity reagent, FACS + sequencing; frameworks hold sequencing errors
Procedure, shortened: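 Galactose-induced (36–48 hours) yeast carrying a synthetic nanobody display library were exposed to 10% biotinylated, detergent-solubilized Sf9 membrane reagent at 4 °C for 1 hour. FACS followed streptavidin microbead enrichment, using low and high (top ~1%) gates for expression (anti-HA) and reagent binding (streptavidin). Colony PCR, MiSeq 2 × 250 sequencing and CDR-length filtering followed. Labels for polyreactivity reflect the gate of origin.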

Row | Sequence | polyreactivity (PSR sort gate)
1 | QVQLVESAGGLVQAGGSLRLSCPASGGIFSWYHMGWYRQEPGKERELVAAISWSGGSTYYADSVKGRFTISRDNAKNTVYLLMNSLKPEDTAVYYCADYTADDYDYWGQGTQVTVSS | high polyreactivity
2 | QVQLVESAGGLVQAGGSLRLSCPASGRTSVINAMGWYRQSPGKERELVAAISSDGITNYADSVKGRFTISRDNAKNTVYLQMISLKPEDTAVYYCAAEWYYVYIAPYDYWGQGTQVTVSS | low polyreactivity
3 | QVQLVESAGGLVQAGGSLRLSCYASGSIFTRNAMGWYRQAPGKERELVASISYSGGNTYYADSVKGRFTISRDNAKNTVYLQMNSLKPEDTAVYYCAALYSVYRDGYYWGQGTQVTVSS | high polyreactivity
4 | QVQLVESAGGLVQAGGSLRLSSDASGFTFYRYAIGWYIQAPGKEREFVAAISWRGTSTYYADSVKGRFKISRDNANNTVYLQMNSLKPEETAVYYCTARRDICWGYHMDYWGQGTQVTVSS | high polyreactivity
5 | QVQLVESAGGLVQAGGSLSLICAASGIIFGGNAMGWSRQAPGKERELVAAISRSGGSTYYADSVKGRFTISRDNAKNTVYLQMTSLKPEDTAVYYCNAYYRYFRSIYDSCGQGTQVTVSS | high polyreactivity
6 | QVQLVESAGGLVQAGGSLSLSCAASGFIFDGYAMGWYRQAPGKERELVAAINFSGGSTYYADSVKGRFTISRDNAKNTVYLQMNSLKPEDTSVYYCNADLEWYWVQFGYGYWGQGTQVTVSS | low polyreactivity
7 | QVQLVESAGGLVQAGGSLSLSCAASGRIFTDYAMGWYRQAPGKERELVARISRSDGSTYYADSVKGRFSISRDNAKNNVYLQMNSLKAEDTAVYYCAAQWTDGRRDHWWDKGFYYWGLGTQVTVSS | low polyreactivity
8 | QVQLVESAGGLVQAGGTLSLSCAASGSTFYNYAMGWYRQAPGTETELVAAISSGGSTNYADSVKGRFTISRDNAKNTVYLQMNSLKPEDTAVYYCARRHRVYPSRIGHDYWGQGTQVTVSS | low polyreactivity
9 | QVQLVESAGGLVQAGVSLRLSCDASGRIFRHNTMGWYRQAPGKERELVAAIRYSGGRTYYADSVKGRFTISRDNAKNTVYLQMNSLKPEDTAVYYCAKDTGQGYYWGQGTQVTVSS | high polyreactivity
10 | QVQLVESAGGLVQARVSLRLSSAASGRTIPTYTMGWYRQAPGKERELVAAITRGGSTKYADSVKGRFTISRDNAKNTVYLQMNSLKPEDTAVYYCAAVYRYRHSFAYYRHEMDYWGLGTQVTVSS | low polyreactivity
11 | QVQLVESAGGLVQEGGSLRLSCAASGSISAPYAMGWYRQAPGKERELVAAISWRGGRTYYADSVKGRFTISRDNAKNTVYLQMNSLKTEDTAVDYCAAKFRLGQFDYDYWGQGTQVTVSS | high polyreactivity
12 | QVQLVESAGGVVQAGGSLRKSCAASLGWYRQAPGKERELVATITSDAGTNYADSVKGRFTISRDNAKNTVYLQMNSLKPEDTAVYYCAATPPYRVYGVNYWGQGTQVTVSS | low polyreactivity
13 | QVQLVESARGLVQAGGSLRLRCAASGSTLSVYVMGWYRQAPGKERELVAAITRGGSTNYADSVKGRFTISRDNAKNTVYLQINSLNPEDTAVYYCAARSFVYYHHGEGSRSGRYYYWGQGTQVTVSS | high polyreactivity
14 | QVQLVESAVGLVQAGGSRRLSCAASGRTFDSNAMGWYRQAPGKEREFVAAISWSGGSTYYADSVKGRFTISRDNAKNTVYLQMNSLKREETAVYYCNRLGRHAPATRYGYWGLGTQVTVSS | high polyreactivity
15 | QVQLVESCGGIVQAGGSLRLRCAASGLIFVANAMGWYRQAPVKESEMVAAISRYGGITYYADSVKGRFTISRDNAKNTVYLEMNSLKPEDTAVYYCAKNLPSNGHYDYWGQGTQVTVSS | low polyreactivity
16 | QVQLVESCGGIVQAGGSLRLSCAASGSTFRVNAMGWYRHSPGKERELVAAIRKSGGSTYADSVKGRFTISRDNAKNTFNLQMNSLKPEDTGVYYCNADATAWLGLADNYWVQGTQVTVSS | low polyreactivity
17 | QVQLVESCGGLVEAGGSLRLSCAASGSILYSNAMGWYRQGPGKESELVAAIRSGGSTSYADSVKGRFTISRDNANNTVYLQMNSLKPDDTAVYYSAADPSSGVTYGMYYWGQGSQVTVSS | low polyreactivity
